We go through three molecules from PMC12507091, “The CsWRKY50-CsREM1-CsTSⅠ module inhibits theanine biosynthesis in tea plants under drought stress”.

The target in data set [1] is CsWRKY50-GST (Camellia sinensis). In words: EMSA; not stated (EMSA protocol per Zhu et al. 2024). The following applies: protein: recombinant; tags: GST (pGEX-4T, N-terminal by vector); blunt. In general terms: In EMSA bound probe runs differently from free probe, usually more slowly.
Data set [2] has as its target T1, CsREM1-GST (Camellia sinensis).
T1 chain: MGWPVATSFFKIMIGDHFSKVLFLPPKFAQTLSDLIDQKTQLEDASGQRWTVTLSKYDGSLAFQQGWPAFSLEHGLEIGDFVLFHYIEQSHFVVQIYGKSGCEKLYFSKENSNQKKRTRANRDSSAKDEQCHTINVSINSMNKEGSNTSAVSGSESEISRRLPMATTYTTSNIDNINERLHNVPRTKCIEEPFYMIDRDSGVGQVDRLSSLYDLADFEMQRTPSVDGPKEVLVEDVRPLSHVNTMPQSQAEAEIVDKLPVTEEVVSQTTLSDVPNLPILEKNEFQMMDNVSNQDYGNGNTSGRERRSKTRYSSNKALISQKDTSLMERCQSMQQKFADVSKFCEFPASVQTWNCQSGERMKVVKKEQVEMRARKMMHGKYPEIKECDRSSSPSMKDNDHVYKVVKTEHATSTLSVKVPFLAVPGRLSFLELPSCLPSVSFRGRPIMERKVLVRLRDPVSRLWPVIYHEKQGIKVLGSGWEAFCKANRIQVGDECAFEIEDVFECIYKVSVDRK
The data set is described as above. The following applies: protein: recombinant; tags: GST (pGEX-4T, N-terminal by vector); blunt.

Chain of CsWRKY50-GST (Camellia sinensis) (chain, as listed by the source): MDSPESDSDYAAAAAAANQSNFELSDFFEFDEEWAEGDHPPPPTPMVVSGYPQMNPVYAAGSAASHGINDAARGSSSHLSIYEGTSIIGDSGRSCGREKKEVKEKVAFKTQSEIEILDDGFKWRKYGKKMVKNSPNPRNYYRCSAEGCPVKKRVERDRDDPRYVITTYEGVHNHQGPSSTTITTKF

B1: CsREM1 promoter Probe (dsDNA)
DNA 1: TTTTGTCTATGTTTTGACTTACTAATAATT
DNA 2: AATTATTAGTAAGTCAAAACATAGACAAAA
Regarding B1, the binding result in data set [1] is listed as “binds”.

B2: CsTSI promoter Probe-2 (dsDNA)
DNA 1: TTACAACATGCTACACAGACTCGTAAA
DNA 2: TTTACGAGTCTGTGTAGCATGTTGTAA
B2: the binding result in data set [2] is reported as “binds”.

B3: CsTSI promoter Probe-1 (dsDNA)
DNA 1: TATGTAATTTTATGTAGAGTTATACAT
DNA 2: ATGTATAACTCTACATAAAATTACATA
Regarding B3, the binding result in data set [2] is “binds”.
